In US20200164032A1 (WASHINGTON UNIVERSITY, published 2020):

Key:
murine CXCL12 = molecular target: T1, murine CXCL12 (mouse, UniProt P40224 22-89); assay: SPR, R17 on CM5 chip
T1 construct: also called mCXCL12

human CCL3 [1] = molecular target: T2, human CCL3 (human, UniProt P10147 23-92); assay: SPR, R17 on CM5 chip
T2 construct: also called hCCL3
T2 sequence: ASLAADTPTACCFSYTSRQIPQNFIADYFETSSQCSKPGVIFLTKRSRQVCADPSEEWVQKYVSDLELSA

murine IL-17 = molecular target: T3, murine IL-17 (mouse, UniProt Q62386 26-158); assay: SPR, R17 on CM5 chip
T3 construct: also called mIL-17
T3 sequence: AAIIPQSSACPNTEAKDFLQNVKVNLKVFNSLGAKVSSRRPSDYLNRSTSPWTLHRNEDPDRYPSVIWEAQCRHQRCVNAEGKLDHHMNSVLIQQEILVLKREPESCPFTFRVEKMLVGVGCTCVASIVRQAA

murine CXCL9 = molecular target: T4, murine CXCL9 (mouse, UniProt P18340 22-126); assay: SPR, R17 on CM5 chip
T4 construct: also called mCXCL9
T4 sequence: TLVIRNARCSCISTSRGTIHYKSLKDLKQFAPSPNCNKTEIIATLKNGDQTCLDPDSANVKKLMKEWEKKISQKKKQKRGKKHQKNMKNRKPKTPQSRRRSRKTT

murine IL-12 = molecular target: T5, murine IL-12 (mouse, UniProt P43431 23-215; P43432 23-335); assay: SPR, R17 on CM5 chip
T5 construct: also called mIL-12
T5 sequence 1: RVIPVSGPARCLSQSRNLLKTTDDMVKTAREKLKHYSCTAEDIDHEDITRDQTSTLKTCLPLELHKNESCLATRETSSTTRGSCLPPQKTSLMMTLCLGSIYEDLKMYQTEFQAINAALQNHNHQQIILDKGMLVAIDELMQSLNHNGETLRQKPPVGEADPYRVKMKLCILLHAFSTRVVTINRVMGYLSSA
T5 sequence 2: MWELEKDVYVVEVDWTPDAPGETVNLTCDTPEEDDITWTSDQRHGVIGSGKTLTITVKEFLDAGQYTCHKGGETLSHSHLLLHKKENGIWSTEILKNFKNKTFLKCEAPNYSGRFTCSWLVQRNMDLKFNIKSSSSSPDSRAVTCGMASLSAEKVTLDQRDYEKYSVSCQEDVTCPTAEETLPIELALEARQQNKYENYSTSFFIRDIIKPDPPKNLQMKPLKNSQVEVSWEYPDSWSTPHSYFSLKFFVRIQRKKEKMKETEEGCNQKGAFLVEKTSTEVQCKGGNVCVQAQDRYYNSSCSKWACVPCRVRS

murine CCL21 = molecular target: T6, murine CCL21 (mouse, UniProt P84444 24-133); assay: SPR, R17 on CM5 chip
T6 construct: also called mCCL21
T6 sequence: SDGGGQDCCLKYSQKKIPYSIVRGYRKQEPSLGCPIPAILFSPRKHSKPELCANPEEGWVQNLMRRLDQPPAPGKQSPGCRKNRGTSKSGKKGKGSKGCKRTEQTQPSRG

murine CXCL2 = molecular target: T7, murine CXCL2 (mouse, UniProt P10889 28-100); assay: SPR, R17 on CM5 chip
T7 construct: also called mCXCL2
T7 sequence: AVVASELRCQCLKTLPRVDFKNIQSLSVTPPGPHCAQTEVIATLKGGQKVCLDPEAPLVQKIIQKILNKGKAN

murine CCL24 = molecular target: T8, murine CCL24 (mouse, UniProt Q9JKC0 27-119); assay: SPR, R17 on CM5 chip
T8 construct: also called mCCL24
T8 sequence: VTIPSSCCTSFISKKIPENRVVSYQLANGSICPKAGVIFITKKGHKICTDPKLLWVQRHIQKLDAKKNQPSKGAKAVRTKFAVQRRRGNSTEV

murine CXCL1 = molecular target: T9, murine CXCL1 (mouse, UniProt P12850 25-96); assay: SPR, R17 on CM5 chip
T9 construct: also called mCXCL1
T9 sequence: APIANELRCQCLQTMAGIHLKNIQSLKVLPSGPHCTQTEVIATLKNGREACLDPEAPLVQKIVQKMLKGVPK

murine IL-13 = molecular target: T10, murine IL-13 (mouse, UniProt P20109 21-131); assay: SPR, R17 on CM5 chip
T10 construct: also called mIL-13
T10 sequence: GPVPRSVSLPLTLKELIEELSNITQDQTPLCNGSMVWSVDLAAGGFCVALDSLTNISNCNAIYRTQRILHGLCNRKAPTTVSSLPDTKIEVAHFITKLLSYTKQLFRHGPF

[2] = molecular target: T11, murine XCL1 (lymphotactin) (mouse, UniProt P47993 22-114); assay: SPR, R17 amine-coupled to CM5 chip
T11 construct: also called mXCL1; lymphotactin (XCL1)
T11 sequence: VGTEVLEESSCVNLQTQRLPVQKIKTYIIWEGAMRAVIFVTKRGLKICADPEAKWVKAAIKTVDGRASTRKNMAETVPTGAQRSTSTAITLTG

human CCL3 [3] = molecular target: T2, human CCL3; assay: SPR, R17 amine-coupled to CM5 chip
murine CCL3 = molecular target: T12, murine CCL3 (mouse, UniProt P10855 24-92); assay: SPR, R17 amine-coupled to CM5 chip
T12 construct: also called mCCL3
T12 sequence: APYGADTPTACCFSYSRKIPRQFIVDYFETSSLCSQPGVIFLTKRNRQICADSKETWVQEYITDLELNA

human CCL5 = molecular target: T13, human CCL5 (human, UniProt P13501 24-91); assay: SPR, R17 amine-coupled to CM5 chip
T13 construct: also called hCCL5
T13 sequence: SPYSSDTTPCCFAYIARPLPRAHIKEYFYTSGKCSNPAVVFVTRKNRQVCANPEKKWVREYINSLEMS

murine CCL11 = molecular target: T14, murine CCL11 (mouse, UniProt P48298 24-97); assay: SPR, R17 amine-coupled to CM5 chip
T14 sequence: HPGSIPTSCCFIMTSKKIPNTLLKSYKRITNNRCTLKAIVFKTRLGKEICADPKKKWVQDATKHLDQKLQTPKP

murine CCL19 = molecular target: T15, murine CCL19 (mouse, UniProt O70460 26-108); assay: SPR, R17 amine-coupled to CM5 chip
T15 construct: also called mCCL19
T15 sequence: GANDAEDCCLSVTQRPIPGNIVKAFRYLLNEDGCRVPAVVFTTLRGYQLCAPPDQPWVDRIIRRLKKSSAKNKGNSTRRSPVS

murine CCL4 = molecular target: T16, murine CCL4 (mouse, UniProt P14097 24-92); assay: SPR, R17 amine-coupled to CM5 chip
T16 construct: also called mCCL4
T16 sequence: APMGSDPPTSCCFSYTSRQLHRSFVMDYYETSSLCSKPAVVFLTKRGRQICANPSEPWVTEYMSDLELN

murine CCL5 = molecular target: T17, murine CCL5 (mouse, UniProt P30882 24-91); assay: SPR, R17 amine-coupled to CM5 chip
T17 construct: also called mCCL5
T17 sequence (P30882 24-91 limits assumed): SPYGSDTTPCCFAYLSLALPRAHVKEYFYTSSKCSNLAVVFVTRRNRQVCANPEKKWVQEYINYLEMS

T1 sequence (P40224 22-89 limits assumed): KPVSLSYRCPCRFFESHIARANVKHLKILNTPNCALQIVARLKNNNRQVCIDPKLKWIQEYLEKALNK

B1: R17 chemokine decoy receptor of Rodent herpesvirus Peru (RHVP), wild type, C-terminal 8-His fusion (receptor)
chain: GPVGEPVASEINEASKVSSRLLTQDILFRKDRQATISLPIKLPVEDIITQTCDKITYGPLKFLDLLEKETAVLPLSTDITCPACLGRAVLVGKWECPAHVAVNESDLTVFGPNKEEHVPQFVTVQQPSDGKMQRLFFAKFLGTEESLAVLRVPGPDGHLCIQEALIHFKELSGAGVCSLWKANDSREEGLEMKQVDCLETTVLENQTCIATTLSKKIYHRLYCGERLMTGGQVSTRVLLTALGFYKRQPYTFHRVPKGMVYVHLIDSGSEDYMEYSECEEVTPGRYEDKQISYTFYTDLFQTADGEPVLASVWGTSGLKDSAYESCAFVIPTKGRRKLVPRRIMSKCYPFRLTYHPSTMTVRLDVRVEKHHGATDQGFVFLKMESGTYSEGREYYLDRVLWGEDSSTNNVLQ
notes: not shown: C-terminal 8-His tag
Murine CXCL12
  binding result: no binding
Human CCL3 [1]
  apparent complex half-life (t1/2,app): > 16.7 min
Murine IL-17
  binding result: no binding
Murine CXCL9
  binding result: no binding
Murine IL-12
  binding result: no binding
Murine CCL21
  binding result: no binding
Murine CXCL2
  binding result: no binding
Murine CCL24
  complex half-life: > 10 min
Murine CXCL1
  binding result: no binding
Murine IL-13
  binding result: no binding
[2]
  dissociation time of the complex: > 10 min
Human CCL3 [3]
  dissociation time of the complex: > 10 min
Murine CCL3
  dissociation time of the complex: > 10 min
Human CCL5
  dissociation time of the complex: > 10 min
Murine CCL11
  binding result: binds
Murine CCL19
  binding result: binds
Murine CCL4
  dissociation time of the complex: > 10 min
Murine CCL5
  dissociation time of the complex: > 10 min
